# Test results taken from patent US9050248B2, “Methods of delivering stable topical drug compositions” (Transdermal Biotechnology, Inc., priority 2002, dated 2015).
# Tests used:
# [1] = Storage stability of insulin by RP-HPLC and HPCE (Example 2); type: physicochemical
# [2] = Storage stability of insulin by RP-HPLC and HPCE (Example 1); type: physicochemical; conditions: stored at room temperature
# Method: This mixture was then divided in half, half of which was stored at 4° C., and the other half stored at room temperature.
# [3] = Skin penetration on topical application of somatotropin composition; conditions: composition topically applied
# Method: A drug delivery composition formulated with somatotropin was formulated in one trial with 85% phosphatidylcholine to which lipoic acid and ascorbyl palmitate were added.
substance,measurement,setting,value
"insulin standards: recombinant human insulin in 0.01 N HCl, 1 mg/ml (Example 1) or 5 mg/ml (Example 2)",time stable (RP-HPLC and HPCE),[1]; stored at 4° C.,22 weeks
same,time at which denaturing started,[1]; stored at room temperature,≤ 1 week
same,time at which denaturing started,[2],≤ 7 days
"Somatotropin: pituitary growth hormone, formulated with 85% phosphatidylcholine, lipoic acid and ascorbyl palmitate",skin penetration,[3],appeared to penetrate the skin well
